Assay results from article PMC3042988, “The activation mechanism of Irga6, an interferon-inducible GTPase contributing to mouse resistance against Toxoplasma gondii” (BMC Biology, 2011).

B1: Irga6 (IIGP1), wild type, recombinant, GST cleaved off [mouse] / itself (parent)
chain: MGQLFSSPKSDENNDLPSSFTGYFKKFNTGRKIISQEILNLIELRMRKGNIQLTNSAISDALKEIDSSVLNVAVTGETGSGKSSFINTLRGIGNEEEGAAKTGVVEVTMERHPYKHPNIPNVVFWDLPGIGSTNFPPNTYLEKMKFYEYDFFIIISATRFKKNDIDIAKAISMMKKEFYFVRTKVDSDITNEADGKPQTFDKEKVLQDIRLNCVNTFRENGIAEPPIFLLSNKNVCHYDFPVLMDKLISDLPIYKRHNFMVSLPNITDSVIEKKRQFLKQRIWLEGFAADLVNIIPSLTFLLDSDLETLKKSMKFYRTVFGVDETSLQRLARDWEIEVDQVEAMIKSPAVFKPTDEETIQERLSRYIQEFCLANGYLLPKNSFLKEIFYLKYYFLDMVTEDAKTLLKEICL

Variants of: B1
Assay: light scattering (homo-oligomerisation)
Conditions: with itself; 80 µM Irga6; 10 mM GTP; 37°C; peak of the time course, at about 10 min; read off a plot

Variant	response
MGQLFSSPKSDENNDLPSSFTGYFKKFNTGRKIISQEILNLIELRMRKGNIQLTNSAISDALKEIDSSVLNVAVTGETGSGKSSFINTLRGIGNEERGAAKTGVVEVTMERHPYKHPNIPNVVFWDLPGIGSTNFPPNTYLEKMKFYEYDFFIIISATRFKKNDIDIAKAISMMKKEFYFVRTKVDSDITNEADGKPQTFDKEKVLQDIRLNCVNTFRENGIAEPPIFLLSNKNVCHYDFPVLMDKLISDLPIYKRHNFMVSLPNITDSVIEKKRQFLKQRIWLEGFAADLVNIIPSLTFLLDSDLETLKKSMKFYRTVFGVDETSLQRLARDWEIEVDQVEAMIKSPAVFKPTDEETIQERLSRYIQEFCLANGYLLPKNSFLKEIFYLKYYFLDMVTEDAKTLLKEICL [chain 1 E97R]	9 a. u.

Same assay, conditions: with itself; 80 µM Irga6; 10 mM GTP; 37°C; peak of the time course, at about 15 min; read off a plot

Variant	response
MGQLFSSPKSDENNDLPSSFTGYFKKFNTGRKIISQEILNLIELRMRKGNIQLTNSAISDALKKIDSSVLNVAVTGETGSGKSSFINTLRGIGNEEEGAAKTGVVEVTMERHPYKHPNIPNVVFWDLPGIGSTNFPPNTYLEKMKFYEYDFFIIISATRFKKNDIDIAKAISMMKKEFYFVRTKVDSDITNEADGKPQTFDKEKVLQDIRLNCVNTFRENGIAEPPIFLLSNKNVCHYDFPVLMDKLISDLPIYKRHNFMVSLPNITDSVIEKKRQFLKQRIWLEGFAADLVNIIPSLTFLLDSDLETLKKSMKFYRTVFGVDETSLQRLARDWEIEVDQVEAMIKSPAVFKPTDEETIQERLSRYIQEFCLANGYLLPKNSFLKEIFYLKYYFLDMVTEDAKTLLKEICL [chain 1 E64K]	8.2 a. u.
